Laboratory results published in PMC7347655, “Mutational analysis of the essential lipopolysaccharide-transport protein LptH of Pseudomonas aeruginosa to uncover critical oligomerization sites” (Scientific Reports, 2020).

Target: the molecule itself
Assay: SEC; 100 uL of purified protein (0.9-2.0 mg/mL, a stated concentration for each variant) on a TSK-GEL G3000PWXL column, 20 mM Tris-HCl pH 8.0, 250 mM NaCl, 0.7 mL/min, detection at 280 nm; oligomerization state estimated from the apparent MW by a calibration curve

Row | Protein | stoichiometry N
1 | LptH_β15del (natural protein, As m1 with a 3-residue deletion in strand β15; aggregation prevented concentrations above 0.9 mg/mL; not shown: His6, N-terminal, kept) LPSDREQPIRVQADSAELDDKQGVAVYRGDVVVTQGSTKLTGNTVTLKQDKNGDIEVVTSVGKPAYYEQKPAPDKDVTKAYGLTIQYFVTQNRVVLIDQAKVIQEGNTFEGEKIVYDTQRQIGRATGSQVTSPRPRIDMVIQPKKKAQ | 2
2 | wild-type LptH (natural protein, Pseudomonas aeruginosa, UniProt Q9HVV7 25-175, looked up, Cloned NdeI/HindIII into pET28b; the vector's linker between the His tag and the protein is not described; no tag removal is described; also called LptH6His; PA4460; not shown: His6, N-terminal, kept) LPSDREQPIRVQADSAELDDKQGVAVYRGDVVVTQGSTKLTGNTVTLKQDKNGDIEVVTSVGKPAYYEQKPAPDKDVTKAYGLTIQYFVTQNRVVLIDQAKVIQEGNTFEGEKIVYDTQRQIVNAGRATGSQVTSPRPRIDMVIQPKKKAQ | 2
3 | LptH_β15mut (natural protein, not shown: His6, N-terminal, kept) LPSDREQPIRVQADSAELDDKQGVAVYRGDVVVTQGSTKLTGNTVTLKQDKNGDIEVVTSVGKPAYYEQKPAPDKDVTKAYGLTIQYFVTQNRVVLIDQAKVIQEGNTFEGEKIVYDTQRQIEPDGRATGSQVTSPRPRIDMVIQPKKKAQ | 2
